Like-named read-outs stand apart in the source and are kept apart here.
Columns and labels:
[1] = biological target: T1, human GIPR (Homo sapiens, UniProt P48546); assay: In vitro receptor activation reporter assay (CRE-Luc, HEK293-GIPR-CRE cells; receptor-mediated cAMP synthesis); type: cell-based
T1 construct: expressed in transfected cells; host or cells: HEK293 (CRE-HEK293, HEK293-GIPR-CRE)
T1 sequence (P48546 22-466): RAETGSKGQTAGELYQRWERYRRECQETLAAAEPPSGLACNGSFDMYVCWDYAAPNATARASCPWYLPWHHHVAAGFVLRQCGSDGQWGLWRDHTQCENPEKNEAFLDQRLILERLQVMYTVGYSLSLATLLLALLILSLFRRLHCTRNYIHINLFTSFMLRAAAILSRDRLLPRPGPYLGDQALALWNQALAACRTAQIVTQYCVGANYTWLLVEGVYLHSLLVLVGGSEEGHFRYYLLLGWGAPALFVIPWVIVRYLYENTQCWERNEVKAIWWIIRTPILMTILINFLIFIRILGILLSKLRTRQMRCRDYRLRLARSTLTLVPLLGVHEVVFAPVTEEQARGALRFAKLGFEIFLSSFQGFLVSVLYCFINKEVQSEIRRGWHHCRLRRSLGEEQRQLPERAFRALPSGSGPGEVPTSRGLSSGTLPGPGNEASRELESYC
Method: (§1) HEK293 cells were infected with lentivirus encoding firefly luciferase gene under the control of cAMP responsive element (CRE) promoter (Qiagen, The Netherlands) and then were selected using 1 μg mL^−1 puromycin (Life Technologies, Carlsbad) for 1 week. The surviving cells (referred to as CRE-HEK293) were expanded and then transfected with a G418 selective mammalian expression plasmid encoding human GLP-1R or GIPR. In brief, GLP-1R or GIPR plasmid was transfected into CRE-HEK293 cells using Lipofectamine 2000 and selected with 400 μg mL^−1 Geneticin (Life Technologies, Carlsbad, CA). Single colony stable cell line overexpressing CRE-luciferase and GLP-1R or GIPR (HEK293-GLP-1R-CRE or HEK293-GIPR-CRE) was then established for in vitro activity assay.

[2] = biological target: human GLP-1R (Homo sapiens, UniProt P43220); assay: In vitro receptor activation reporter assay (CRE-Luc, HEK293-GLP-1R-CRE cells; receptor-mediated cAMP synthesis); type: cell-based; parameters: expressed in transfected cells; host or cells: HEK293 (CRE-HEK293, HEK293-GLP-1R-CRE)
human GLP-1R, sequence (P43220 24-463): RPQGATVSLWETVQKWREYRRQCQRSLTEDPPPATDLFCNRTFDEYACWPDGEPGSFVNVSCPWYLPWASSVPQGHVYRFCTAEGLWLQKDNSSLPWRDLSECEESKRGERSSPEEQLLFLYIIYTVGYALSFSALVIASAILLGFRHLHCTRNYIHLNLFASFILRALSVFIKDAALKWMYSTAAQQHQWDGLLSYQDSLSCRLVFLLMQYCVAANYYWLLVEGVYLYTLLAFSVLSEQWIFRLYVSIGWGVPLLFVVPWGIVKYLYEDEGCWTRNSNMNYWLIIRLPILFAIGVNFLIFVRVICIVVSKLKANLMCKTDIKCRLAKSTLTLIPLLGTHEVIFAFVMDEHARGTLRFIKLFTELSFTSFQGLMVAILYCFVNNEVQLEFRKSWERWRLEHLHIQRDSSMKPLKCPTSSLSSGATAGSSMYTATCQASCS
Method: as §1
HEK293 cells were infected with lentivirus encoding firefly luciferase gene under the control of cAMP responsive element (CRE) promoter (Qiagen, The Netherlands) and then were selected using 1 μg/mL puromycin (Life Technologies, Carlsbad) for 1 week. The surviving cells (referred to as CRE-HEK293) were expanded and then transfected with a G418 selective mammalian expression plasmid encoding human GLP-1R. In brief, GLP-1R plasmid was transfected into CRE-HEK293 cells using Lipofectamine 2000 and selected with 400 μg/mL Geneticin (Life Technologies, Carlsbad, CA). Single colony stable cell line overexpressing CRE-luciferase and GLP1R was then established for in vitro activity assay.

[3] = biological target: T2, mouse GIPR (Mus musculus, UniProt Q0P543); assay: In vitro potency, mouse GIPR activation (receptor-mediated cAMP synthesis); type: cell-based; conditions: Table 12
T2 sequence (Q0P543 19-460): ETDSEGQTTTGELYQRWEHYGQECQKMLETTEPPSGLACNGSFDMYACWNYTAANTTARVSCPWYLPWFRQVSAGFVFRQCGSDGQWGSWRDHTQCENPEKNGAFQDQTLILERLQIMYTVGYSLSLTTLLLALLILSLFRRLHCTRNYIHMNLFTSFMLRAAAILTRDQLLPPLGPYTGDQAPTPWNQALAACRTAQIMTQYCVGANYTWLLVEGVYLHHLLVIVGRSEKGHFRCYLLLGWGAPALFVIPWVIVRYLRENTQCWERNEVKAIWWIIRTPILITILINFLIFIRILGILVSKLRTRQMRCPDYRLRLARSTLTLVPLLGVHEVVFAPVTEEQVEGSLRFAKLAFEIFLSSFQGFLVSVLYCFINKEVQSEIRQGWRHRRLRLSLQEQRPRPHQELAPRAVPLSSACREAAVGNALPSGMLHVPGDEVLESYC

[4] = in vivo; conditions: cynomolgus monkey
[5] = in vivo; conditions: dog
[6] = biological target: T3, mouse GLP1R (Mus musculus, UniProt O35659); assay: In vitro potency, mouse GLP1R activation (receptor-mediated cAMP synthesis); type: cell-based; conditions: Table 12
T3 sequence (O35659 22-463): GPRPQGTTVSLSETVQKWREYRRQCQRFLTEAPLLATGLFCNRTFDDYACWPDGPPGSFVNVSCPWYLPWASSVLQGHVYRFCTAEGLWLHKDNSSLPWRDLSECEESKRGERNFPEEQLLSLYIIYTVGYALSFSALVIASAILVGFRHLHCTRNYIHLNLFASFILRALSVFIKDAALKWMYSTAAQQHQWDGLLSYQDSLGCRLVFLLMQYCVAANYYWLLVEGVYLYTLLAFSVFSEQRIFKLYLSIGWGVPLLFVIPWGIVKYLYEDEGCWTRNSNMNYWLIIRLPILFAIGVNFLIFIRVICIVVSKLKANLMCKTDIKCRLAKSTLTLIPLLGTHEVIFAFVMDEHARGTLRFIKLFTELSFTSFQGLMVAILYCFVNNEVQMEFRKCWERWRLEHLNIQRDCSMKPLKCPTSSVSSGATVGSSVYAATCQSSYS
Method: GLP-1R-CRE or HEK293-GIPR-CRE cells were seeded in 384-well plates at a density of 5000 cells per well and cultured for 18 h in DMEM with 10% FBS at 37° C. and 5% CO2. Cells were treated with peptides in a dose dependent manner for 24 h, and receptor activation was reported by luminescence intensities, using One-Glo (Promega, WI) luciferase reagent following manufacturer's instruction. The EC50 of each peptide was determined using GraphPad Prism 6 software (GraphPad, San Diego, CA). Results are depicted in FIGS. 6A-6B, FIGS. 7A-7B, FIGS. 8A-8B, FIGS. 9A-9B, and Tables 7-12. Measurements of peptide conjugate potency were expressed as half maximal effective concentration (EC50) values.

[7] = In Vitro Potency GIPR EC50, 10% FBS, Table 11, human, 10% FBS
[8] = Table 11, human, No Serum, read-out: In Vitro Potency GIPR EC50, No Serum
[9] = In Vitro Potency GLPIR EC50, 10% FBS, Table 11, human, 10% FBS

Row | SMILES | EC50 [1, 7] | EC50 [1, 8] | EC50 [2, 9] | EC50 [3] | T last ([4]; iv) | Vd ([4]; iv) | clearance ([4]; iv) | half-life ([4]; iv) | AUC(0-t) ([4]; sc) | Cmax ([4]; sc) | T last ([4]; sc) | Tmax ([4]; sc) | bioavailability ([4]; sc) | half-life ([4]; sc) | AUC(0-t) ([5]; iv) | T last ([5]; iv) | Vd ([5]; iv) | clearance ([5]; iv) | half-life ([5]; iv) | EC50 [6] | other results
1 | CC[C@H](C)[C@H](NC(=O)[C@H](CC(C)C)NC(=O)[C@H](Cc1c[nH]c2ccccc12)NC(=O)[C@@H]1CSCC(=O)NCCN(C(=O)CCC(=O)NCCOCCOCCC(=O)NCCOCCOCCC(=O)NCCCC[C@H](NC(=O)CCCCCCCCCCCCCCCCCCC(=O)O)C(=O)O)CCNC(=O)CSC[C@H](NC(=O)[C@H](CCCCN)NC(=O)[C@H](CC(=O)O)NC(=O)[C@H](CC(C)C)NC(=O)[C@H](Cc2ccc(O)cc2)NC(=O)[C@@H](NC(=O)[C@H](CO)NC(=O)[C@H](Cc2ccc(O)cc2)NC(=O)[C@H](CC(=O)O)NC(=O)[C@H](CO)NC(=O)[C@@H](NC(=O)[C@H](Cc2ccccc2)NC(=O)[C@@H](NC(=O)CNC(=O)[C@H](CCC(=O)O)NC(=O)C(C)(C)NC(=O)[C@@H](N)Cc2ccc(O)cc2)[C@@H](C)O)[C@@H](C)O)[C@@H](C)CC)C(=O)N[C@@H](C)C(=O)N[C@@H](C)C(=O)NC(C)(C)C(=O)N[C@@H](CCC(=O)O)C(=O)N[C@@H](Cc2ccccc2)C(=O)N[C@@H](C(C)C)C(=O)N1)C(=O)N[C@@H](C)C(=O)NCC(=O)NCC(=O)N1CCC[C@H]1C(=O)N[C@@H](CO)C(=O)N[C@@H](CO)C(=O)NCC(=O)N[C@@H](C)C(=O)N1CCC[C@H]1C(=O)N1CCC[C@H]1C(=O)N1CCC[C@H]1C(=O)N[C@@H](CO)C(N)=O [mCMV268] | 0.09 ± 0.02 nM | 0.01 ± 0.01 nM | 1.96 ± 0.46 nM | 0.26 nM | 504 h | 0.0612 L/kg | 0.84 mL/h/kg | 58.8 h | 438000 ng·h/mL | 3930 ng/mL | 504 h | 14.7 h | 73.7% | 60.5 h | 59200 ng·h/mL | 168 h | 0.0957 L/kg | 1.09 mL/h/kg | 63.9 h | 0.26 nM | EC50 ([1]; unnumbered table, average of runs, read-out: EC50 GIPR average): 0.04 nM; EC50 ([1]; unnumbered table, run 02/19, read-out: EC50 GIPR 02/19): 0.05 nM; EC50 ([1]; unnumbered table, run 03/25, read-out: EC50 GIPR 03/25): 0.04 nM; EC50 ([1]; unnumbered table, run 03/26, read-out: EC50 GIPR 03/26): 0.03 nM; EC50 ([2]; unnumbered table, average of runs, read-out: EC50 GLP1R average): 0.03 nM; EC50 ([2]; unnumbered table, run 02/19, read-out: EC50 GLP1R 02/19): 0.02 nM; EC50 ([2]; unnumbered table, run 3/25, read-out: EC50 GLP1R 3/25): 0.03 nM; EC50 ([2]; unnumbered table, run 03/26, read-out: EC50 GLP1R 03/26): 0.03 nM; Cmax ([5]; iv): 8500 ng/mL; Tmax ([5]; iv): 0.693 h; AUC(0-t) ([5]; po): 1700 ng·h/mL; Cl ([5]; po): 1300 mL/h/kg; Cmax ([5]; po): 31.4 ng/mL; T last ([5]; po): 144 h; Tmax ([5]; po): 1 h; bioavailability ([5]; po): 0.27%, 0.27%,; half-life ([5]; po): 77.8 h
2 | CC[C@H](C)[C@H](NC(=O)[C@H](CC(C)C)NC(=O)[C@H](Cc1c[nH]c2ccccc12)NC(=O)[C@@H]1CSCC(=O)NCCN(C(=O)CCC(=O)NCCOCCOCCC(=O)NCCOCCOCCC(=O)NCCCC[C@H](NC(=O)CCCCCCCCCCCCCCCCC(=O)O)C(=O)O)CCNC(=O)CSC[C@H](NC(=O)[C@H](CCCCN)NC(=O)[C@H](CC(=O)O)NC(=O)[C@H](CC(C)C)NC(=O)[C@H](Cc2ccc(O)cc2)NC(=O)[C@@H](NC(=O)[C@H](CO)NC(=O)[C@H](Cc2ccc(O)cc2)NC(=O)[C@H](CC(=O)O)NC(=O)[C@H](CO)NC(=O)[C@@H](NC(=O)[C@H](Cc2ccccc2)NC(=O)[C@@H](NC(=O)CNC(=O)[C@H](CCC(=O)O)NC(=O)C(C)(C)NC(=O)[C@@H](N)Cc2ccc(O)cc2)[C@@H](C)O)[C@@H](C)O)[C@@H](C)CC)C(=O)N[C@@H](C)C(=O)N[C@@H](C)C(=O)NC(C)(C)C(=O)N[C@@H](CCC(=O)O)C(=O)N[C@@H](Cc2ccccc2)C(=O)N[C@@H](C(C)C)C(=O)N1)C(=O)N[C@@H](C)C(=O)NCC(=O)NCC(=O)N1CCC[C@H]1C(=O)N[C@@H](CO)C(=O)N[C@@H](CO)C(=O)NCC(=O)N[C@@H](C)C(=O)N1CCC[C@H]1C(=O)N1CCC[C@H]1C(=O)N1CCC[C@H]1C(=O)N[C@@H](CO)C(N)=O [mCMZ371, YAibEGT-FTSDY-SIYLD-KXAAAib-EFVXW-LIAGG-PSSGA-PPPS-NH2 (where each X is C) (SEQ ID NO: 61)] | 0.04 ± 0.01 nM | 0.01 nM | 0.56 ± 0.15 nM | 0.27 nM | 240 h | 0.0538 L/kg | 0.756 mL/h/kg | 60.2 h | 156000 ng·h/mL | 1740 ng/mL | 240 h | 24 h | 58.5% | 49.3 h | 25600 ng·h/mL | 240 h | 0.11 L/kg | 1.19 mL/h/kg | 71.9 h | 0.09 nM | EC50 ([2]; Table 11, human, No Serum, read-out: In Vitro Potency GLPIR EC50, No Serum): 0.14 ± 0.06 nM; t1/2 in cynomolgus monkeys (in words) [4]: long t1/2; AUC(0-t) ([4]; iv): 267000 ng·h/mL; t1/2 in dogs (in words) [5]: long t1/2; AUC(0-t) ([5]; sc): 17600 ng·h/mL; Cmax ([5]; sc): 150 ng/mL; T last ([5]; sc): 240 h; Tmax ([5]; sc): 24 h; half-life ([5]; sc): 62.7 h; bioavailability ([5]; sc, Bioavailability): 68.7%

— patent US12329823B2 (The Scripps Research Institute, priority 2021, dated 2025)
